B1: R-spondin-1 (Homo sapiens), Q2MKA7 (parent)
chain: MRLGLCVVALVLSWTHLTISSRGIKGKRQRRISAEGSQACAKGCELCSEVNGCLKCSPKLFILLERNDIRQVGVCLPSCPPGYFDARNPDMNKCIKCKIEHCEACFSHNFCTKCKEGLYLHKGRCYPACPEGSSAANGTMECSSPAQCEMSEWSPWGPCSKKQQLCGFRRGSEERTRRVLHAPVGDHAACSDTKETRRCTVRRVPCPEGQKRRKGGQGRRENANRNLARKESKEAGAGSRRRKGQQQQQQQGTVGPLTSAGPA
partner: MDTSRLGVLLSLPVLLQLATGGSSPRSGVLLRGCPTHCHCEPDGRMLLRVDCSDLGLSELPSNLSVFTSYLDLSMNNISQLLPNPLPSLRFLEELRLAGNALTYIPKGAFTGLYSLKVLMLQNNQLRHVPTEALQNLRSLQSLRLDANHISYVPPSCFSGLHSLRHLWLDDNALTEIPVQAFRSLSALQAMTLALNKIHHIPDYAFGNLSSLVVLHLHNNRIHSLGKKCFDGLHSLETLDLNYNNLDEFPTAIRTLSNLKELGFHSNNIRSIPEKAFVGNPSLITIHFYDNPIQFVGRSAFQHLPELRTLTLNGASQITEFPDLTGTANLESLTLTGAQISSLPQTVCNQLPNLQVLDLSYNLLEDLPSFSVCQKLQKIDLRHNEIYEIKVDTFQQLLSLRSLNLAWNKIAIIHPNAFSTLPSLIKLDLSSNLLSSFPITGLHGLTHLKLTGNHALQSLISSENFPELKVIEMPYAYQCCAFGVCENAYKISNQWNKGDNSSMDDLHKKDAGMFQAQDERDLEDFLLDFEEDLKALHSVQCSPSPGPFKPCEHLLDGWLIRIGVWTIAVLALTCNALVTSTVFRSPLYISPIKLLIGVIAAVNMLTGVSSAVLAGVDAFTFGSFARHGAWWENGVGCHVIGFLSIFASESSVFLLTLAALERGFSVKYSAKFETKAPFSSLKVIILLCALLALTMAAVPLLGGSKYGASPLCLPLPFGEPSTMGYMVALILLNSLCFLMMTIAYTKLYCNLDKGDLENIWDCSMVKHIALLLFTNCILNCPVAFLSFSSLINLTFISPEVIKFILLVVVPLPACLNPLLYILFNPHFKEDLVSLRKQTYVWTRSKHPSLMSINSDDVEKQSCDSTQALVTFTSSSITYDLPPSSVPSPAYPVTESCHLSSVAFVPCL

Variants of: B1
Settings: with lgr5_human LGR5, O75473

| Variant | effect of a mutation on the interaction |
| --- | --- |
| R66A | with no effect |
| Q71R | with no effect |
| G73R | with no effect |
| R70E | with no effect |
| R70A | decreasing interaction strength |
| G82E | with no effect |
| F106E | disrupting interaction strength |

Now from value to variant:

| effect of a mutation on the interaction | Variant |
| --- | --- |
| with no effect | R66W |
| disrupting interaction strength | F110E |
| with no effect | Q71E |
| with no effect | G73E |
| with no effect | R70C |

Reference: IntAct's records for PubMed 23809763
